Consider 13 substances from US20250320281A1.

Bounds are passed on as bounds.

What all share (assay): cell-based or functional assay
Experiment [1] concerns the target HIV-1 NL43 envelope glycoprotein (Env) on pseudovirus (HIV-1).
In experiment [2] the target is HIV-1 92UG005 envelope glycoprotein (Env) on pseudovirus (HIV-1).
Experiment [3] has as its target HIV-1 Env of pseudovirus MGRM-AG-009 (clade CRF_AG) (HIV-1).
Experiment [4] has as its target HIV-1 Env of isolate 92RW024 (clade A pseudovirus) (HIV-1).
In experiment [5] the target is HIV-1 IAVI-C22 envelope glycoprotein (Env) on pseudovirus (HIV-1).
The target of experiment [6] is HIV-1 Env of isolate PVO.4 (Acute), clade B, on pseudovirus (HIV-1).
In experiment [7] the target is HIV-1 Env of isolate 92RW021 (clade A pseudovirus) (HIV-1).
The target of experiment [8] is HIV-1 Env of pseudovirus MGRM-AE-004 (clade CRF01_AE) (HIV-1).
The target in experiment [9] is HIV-1 APV-6 envelope glycoprotein (Env) on pseudovirus (HIV-1).
Experiment [10] addresses HIV-1 APV-13 envelope glycoprotein (Env) on pseudovirus (HIV-1).
Experiment [11] addresses HIV-1 Env of pseudovirus MGRM-F1-004 (HIV-1).
Experiment [12] has as its target HIV-1 envelope glycoprotein (Env) of isolate MGRM-A-014, clade A (HIV-1).
For experiment [13], the target named is HIV-1 envelope glycoprotein (Env) of isolate 94KE105, listed under clade A (HIV-1).
The target in experiment [14] is HIV-1 Env of isolate 93MW959 (clade C) (HIV-1 isolate 93MW959).
Experiment [15] deals with HIV-1 Env of pseudovirus MGRM-G-011 (HIV-1, clade G isolate MGRM-G-011).
The target of experiment [16] is HIV-1 Env of pseudovirus MGRM-AG-003 (clade CRF_AG) (HIV-1).
Experiment [17] has as its target HIV-1 Env of isolate 6535.3 (Acute), clade B, on pseudovirus (HIV-1).
Experiment [18] has as its target HIV-1 Env of isolate MGRM-Chronic-B-002, clade B, on pseudovirus (HIV-1).
Experiment [19] concerns the target HIV-1 Env of pseudovirus MGRM-G-014 (HIV-1, clade G isolate MGRM-G-014).
Experiment [20] concerns the target HIV-1 envelope glycoprotein (Env) of isolate MGRM-A-009, clade A (HIV-1).
The target of experiment [21] is HIV-1 Env of isolate MGRM-G-027 (HIV-1).
In experiment [22] the target is HIV-1 Env of isolate MGRM-G-006 (HIV-1).
Experiment [23] deals with HIV-1 Env of isolate MGRM-G-013 (HIV-1).
For experiment [24], the target named is HIV-1 Env of isolate 92UG005 (HIV-1).

Chain of 1443_C16 (PG16) (TCN-116) (antibody) (VH): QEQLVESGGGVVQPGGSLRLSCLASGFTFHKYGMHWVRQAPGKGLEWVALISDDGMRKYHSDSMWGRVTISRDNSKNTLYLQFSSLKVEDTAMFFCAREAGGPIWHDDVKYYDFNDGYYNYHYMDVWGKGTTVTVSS
Chain of 1443_C16 (PG16) (TCN-116) (antibody) (VL): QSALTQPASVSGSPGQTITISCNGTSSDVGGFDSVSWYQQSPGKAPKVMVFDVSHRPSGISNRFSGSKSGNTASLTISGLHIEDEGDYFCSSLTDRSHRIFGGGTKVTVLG
Chain of 4970_K22 (PGT-144) (antibody) (VH): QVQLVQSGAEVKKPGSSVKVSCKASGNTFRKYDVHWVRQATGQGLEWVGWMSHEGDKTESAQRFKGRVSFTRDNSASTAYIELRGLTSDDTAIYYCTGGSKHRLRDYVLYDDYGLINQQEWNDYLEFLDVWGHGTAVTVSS
Chain of 4970_K22 (PGT-144) (antibody) (VL): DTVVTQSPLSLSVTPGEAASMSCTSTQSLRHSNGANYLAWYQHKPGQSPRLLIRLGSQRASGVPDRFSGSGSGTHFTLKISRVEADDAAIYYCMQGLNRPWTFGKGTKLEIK
Chain of 4995_E20 (PGT-142) (antibody) (VH): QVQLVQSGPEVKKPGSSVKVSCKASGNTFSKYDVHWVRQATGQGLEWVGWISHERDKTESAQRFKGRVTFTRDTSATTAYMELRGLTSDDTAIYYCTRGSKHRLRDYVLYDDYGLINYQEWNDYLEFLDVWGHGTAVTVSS
Chain of 4995_E20 (PGT-142) (antibody) (VL): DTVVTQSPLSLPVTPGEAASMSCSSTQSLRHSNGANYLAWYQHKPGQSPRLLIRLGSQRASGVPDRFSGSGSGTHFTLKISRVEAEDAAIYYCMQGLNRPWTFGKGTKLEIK
Chain of 4993_K13 (PGT-141) (antibody) (VH): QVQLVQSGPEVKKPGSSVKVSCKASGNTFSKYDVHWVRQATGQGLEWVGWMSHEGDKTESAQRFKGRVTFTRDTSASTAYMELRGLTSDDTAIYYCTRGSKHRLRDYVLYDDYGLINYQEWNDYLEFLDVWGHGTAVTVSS
Chain of 4980_N08 (PGT-143) (antibody) (VH): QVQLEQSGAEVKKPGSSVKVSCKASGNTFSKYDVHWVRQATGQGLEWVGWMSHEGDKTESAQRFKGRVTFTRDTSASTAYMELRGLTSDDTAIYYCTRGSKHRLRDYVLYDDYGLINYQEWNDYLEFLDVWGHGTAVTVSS
Chain of 4980_N08 (PGT-143) (antibody) (VL): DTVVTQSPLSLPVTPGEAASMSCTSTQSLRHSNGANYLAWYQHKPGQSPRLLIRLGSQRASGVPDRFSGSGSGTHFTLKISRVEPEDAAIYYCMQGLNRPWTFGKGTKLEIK

As usually defined, the IC50 is the concentration that gives 50% inhibition. Higher therefore signals a need for much substance. Consider 2F5 (antibody), for which the IC50, pseudovirus neutralization in [1] was 2.41 µg/mL; in experiment [2], 11.8 µg/mL; in experiment [5], over 50 µg/mL; in [9] it was 0.1 µg/mL; in experiment [10], 2.8 µg/mL. Besides, the IC50 stood at 24.8 µg/mL in experiment [3], 0.98 µg/mL in experiment [8] and 0.14 µg/mL in experiment [16]. Also, the IC50 (µg/ml), pseudovirus neutralization was 8.22 µg/mL in experiment [4]; over 50 µg/mL in [6]; 4.16 µg/mL in experiment [7]; 4.31 µg/mL in experiment [11]; 1.43 µg/mL in experiment [12]; over 50 µg/mL in experiment [13]. In addition, the IC50 (µg/ml), pseudovirus neutralization is over 50 µg/mL in experiment [14]; 1.16 µg/mL in [15]; 2.76 µg/mL in [17]; 1.25 µg/mL in experiment [18]; 9.65 µg/mL in experiment [19]; 9.4 µg/mL in experiment [20].
2G12 (antibody): the IC50, pseudovirus neutralization is 0.75 µg/mL in experiment [1]; over 50 µg/mL in [2]; over 50 µg/mL in [5]; 5.3 µg/mL in [9]; 23.9 µg/mL in experiment [10]. In addition, the IC50 in experiment [3], in experiment [8] and in experiment [16] was over 50 µg/mL each time. In addition, the IC50 (µg/ml), pseudovirus neutralization was over 50 µg/mL in experiment [4]; 0.8 µg/mL in experiment [6]; over 50 µg/mL in [7]; over 50 µg/mL in experiment [11]; over 50 µg/mL in experiment [12]; 7.22 µg/mL in [13]. Further, the IC50 (µg/ml), pseudovirus neutralization is over 50 µg/mL in [14]; over 50 µg/mL in [15]; 3.85 µg/mL in experiment [17]; over 50 µg/mL in experiment [18]; over 50 µg/mL in experiment [19]; 7.47 µg/mL in [20].
For 4E10 (antibody), the IC50, pseudovirus neutralization turned out to be 4.95 µg/mL in experiment [1]; 8.86 µg/mL in experiment [2]; 1.02 µg/mL in experiment [5]; 0.4 µg/mL in [9]; 3.8 µg/mL in experiment [10]. Also, the IC50 in experiment [3] was 31.4 µg/mL; in experiment [8], 1.27 µg/mL; in [16] it was 0.64 µg/mL. The IC50 (µg/ml), pseudovirus neutralization in experiment [4] turned out to be 8.88 µg/mL; in experiment [6] it was 18.3 µg/mL; in [7], 4.87 µg/mL; in experiment [11] it was 2.74 µg/mL; in experiment [12] it was 1.74 µg/mL; in experiment [13], 7.63 µg/mL. Moreover, the IC50 (µg/ml), pseudovirus neutralization in [14] was 4.55 µg/mL; in [15], 1.44 µg/mL; in experiment [17], 1.23 µg/mL; in experiment [18] it was 2.19 µg/mL; in experiment [19], 13.7 µg/mL; in experiment [20], 12 µg/mL.
Regarding 1443_C16 (PG16) (TCN-116) (antibody), the IC50, pseudovirus neutralization in experiment [1] was under 0.0025 µg/mL; in [2], over 50 µg/mL; in experiment [5] it was 0.0687 µg/mL; in [9], 0.08 µg/mL; in [10] it was over 50 µg/mL. For the same substance, the IC50 in [3] is over 50 µg/mL; in [8], 0.002 µg/mL; in experiment [16] it was over 50 µg/mL. Moreover, the IC50 (µg/ml), pseudovirus neutralization in experiment [4] worked out at 0.08 µg/mL; in [6] it was 5.43 µg/mL; in [7] it was 0.11 µg/mL; in [11], 0.43 µg/mL; in experiment [12], 20.3 µg/mL; in experiment [13], 6.13 µg/mL. The IC50 (µg/ml), pseudovirus neutralization came to 0.007 µg/mL in [14]; 0.04 µg/mL in [15]; 36.9 µg/mL in experiment [17]; 3.06 µg/mL in experiment [18]; 6.98 µg/mL in [19]; 0.01 µg/mL in [20].
With 1495_C14 (PGC14) (antibody), the IC50, pseudovirus neutralization in [1] is 0.373 µg/mL; in experiment [2], over 50 µg/mL; in experiment [5], 9.5 µg/mL; in [9] it was 7.41 µg/mL; in experiment [10], over 50 µg/mL. Also, the IC50 in experiment [3], in experiment [8] and in experiment [16] was over 50 µg/mL in each case. Also, the IC50 (µg/ml), pseudovirus neutralization in [4], in [6], in experiment [7], in [11], in [12] and in experiment [13] was over 50 µg/mL each time. For the same substance, the IC50 (µg/ml), pseudovirus neutralization in experiment [14] is over 50 µg/mL; in [15], over 50 µg/mL; in experiment [17], 35 µg/mL; in experiment [18] it was over 50 µg/mL; in experiment [19], over 50 µg/mL; in experiment [20] it was over 50 µg/mL.
With 1496_C09 (PG9) (TCN-109) (antibody), the IC50 (µg/ml), pseudovirus neutralization came out at 0.18 µg/mL in experiment [4]; 4.01 µg/mL in experiment [6]; 0.05 µg/mL in experiment [7]; 0.62 µg/mL in experiment [12]; 29.6 µg/mL in experiment [13]; 0.04 µg/mL in experiment [14]. The IC50 (µg/ml), pseudovirus neutralization in experiment [15] turned out to be 0.19 µg/mL; in [17] it was 0.22 µg/mL; in [18], 1.41 µg/mL; in experiment [19], 6.32 µg/mL; in experiment [20] it was 0.03 µg/mL. The IC50, pseudovirus neutralization came out at 24.9 µg/mL in experiment [5] and 0.0869 µg/mL in experiment [9]. The IC50 in experiment [8] is 0.01 µg/mL; in experiment [16], 9.71 µg/mL. Also, the IC50 (µg/mL), pseudovirus neutralization stood at 0.007 µg/mL in experiment [21] and 1.98 µg/mL in [22].
On to 4970_K22 (PGT-144) (antibody), for which the IC50 (µg/mL), pseudovirus neutralization was over 50 µg/mL in [23], over 50 µg/mL in experiment [21] and 3.84 µg/mL in experiment [22].
Consider 4980_N08 (PGT-143) (antibody), for which the IC50 (µg/mL), pseudovirus neutralization in experiment [23] was over 50 µg/mL; in experiment [21] it was over 50 µg/mL; in experiment [22] it was 0.031 µg/mL.
Regarding 4993_K13 (PGT-141) (antibody), the IC50 (µg/mL), pseudovirus neutralization in experiment [23] is over 50 µg/mL; in experiment [21], over 50 µg/mL; in [22] it was 0.043 µg/mL; in experiment [24], over 50 µg/mL.
For the substance 4995_E20 (PGT-142) (antibody), the results for the IC50 (µg/mL), pseudovirus neutralization in experiment [23], in experiment [21] and in experiment [22] were over 50 µg/mL, over 50 µg/mL and 0.019 µg/mL, respectively.
As for PGV04 (antibody), the IC50 (µg/mL), pseudovirus neutralization in [23] was determined as 0.168 µg/mL; in [21], 0.125 µg/mL; in [22], 0.083 µg/mL.
With VRC01 (antibody), the results for the IC50 (µg/mL), pseudovirus neutralization in [23], in experiment [21] and in experiment [22] were 0.553 µg/mL, 0.36 µg/mL and 0.055 µg/mL, respectively.
In the case of b12 (antibody), the IC50, pseudovirus neutralization in experiment [1] was 0.06 µg/mL; in experiment [2], over 50 µg/mL; in [5], 3.6 µg/mL; in [9], over 25 µg/mL; in experiment [10], over 25 µg/mL. The IC50 in [3], in [8] and in [16] was over 50 µg/mL each time. For the same substance, the IC50 (µg/ml), pseudovirus neutralization in experiment [4], in [6], in [7], in [11], in experiment [12] and in experiment [13] was over 50 µg/mL in each case. For the same substance, the IC50 (µg/ml), pseudovirus neutralization in experiment [14] is over 50 µg/mL; in experiment [15], over 50 µg/mL; in experiment [17], 1.93 µg/mL; in experiment [18], 0.86 µg/mL; in [19], over 50 µg/mL; in experiment [20], 4.34 µg/mL.
